In US20240352438A1, “MEANS AND METHODS FOR DETOXIFYING OCHRATOXIN A” (DSM Austria GmbH, priority 2021, published 2024):

Key:
[1] = OTA detoxification activity assay (specific activity, fluorescence reduction ex/em 390/450 nm); format: biochemical; conditions: 37° C., 200 ng/mL OTA, 100 mM sodium phosphate buffer
Outline: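 Recombinant enzyme preparation with 200 ng/mL OTA in 100 mM sodium phosphate, at pH 6.0 and pH 7.5, 37° C. Degradation followed as the fall in fluorescence at ex/em 390/450 nm. Specific activity taken from the initial linear slope; one unit degrades 1 μmol OTA per min at a starting OTA of […].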

[2] = Thermostability assay: residual OTA detoxification activity after 10 min incubation at 45-99° C. (T50); format: physicochemical; conditions: for T50 (temperature range in which 50% of the initial activity was lost after the incubation): 0.1 mg/mL in 20 mM Tris-HCl buffer pH 7.5; for T50 (temperature at which 50% of the initial activity was maintained): 0.1 mg/mL protein in 20 mM Tris-HCl pH 7.5, residual OTA detoxification activity relative to 4° C. reference aliquot
Procedure: Stability was determined in terms of thermostability. Notwithstanding, a person having skill in the art is aware that stability towards high temperature (e.g. more than 30° C.) often correlates with stability towards other non-standard conditions such as stability towards acidic or basic pH (e.g. below pH 6.5 or above pH 7.5, respectively), towards elevated salt concentrations, organic solvents or drying.
To determine the kinetic stability of the produced enzymes, thermostability assays were performed. To this end, purified protein samples were diluted to a protein concentration of 0.1 mg/mL in 20 mM Tris-HCl buffer pH 7.5 and aliquots were incubated in a thermocycler for 10 min at either 45, 55, 65, 75, 80, 85, 90, 95 or 99° C. After this incubation, the aliquots were stored at 4° C. until further analysis. A reference aliquot was stored at 4° C. throughout the incubation. Subsequently, all aliquots were assayed for residual OTA detoxification activity using the assay described in Example 3. Residual enzyme activities were calculated relative to the reference aliquot. The temperature range in which 50% of the initial activity was lost after the incubation (T50), in relation to the reference aliquot was determined.

Molecule	Specific OTA detoxification activities in U/g at pH 6.0 [1] [U/g]	Specific OTA detoxification activities in U/g at pH 7.5 [1]	T50 (temperature range in which 50% of the initial activity was lost after the incubation) [2]	T50 (temperature at which 50% of the initial activity was maintained) [2]
SEQ ID NO: 336: another exemplary OTA-hydrolyzing polypeptide, amidohydrolase family; mature, processed species of SEQ ID NO: 337 (protein, exemplary polypeptide) VPAPPRPAVLKAARIFDSVSGHLEEPGLVVVAGAKIQAVGSDARIPDNAQVIDLGDATLMPGFIDAHVHLSSEMSDKWYEDWYKSMVRFPAEQALYGAHYAKATLEAGITTVRDLGSSDYISLGLRNAIKAGQIPGPRMLVANYAIGSTGGHADQDPVPPQRLAPAGPIQGVCNGPDECRAAVRYQLKYGADVIKFMPSGGVLSLSDPVDTPELTQEEMNAIVSEAHAWKRKVAAHCHGDRAAKMAIAAGVDSIEHGTFLQDDTLQEMKDKHIYLVPTLSAGYWVGLKADTYPPVIAEKARAASRQMQKMFQRAVKIGVPIAMGTDAGVEPHGQNAREFSLMTTNGLPPAQALLAATAKGADLLGISDQTGTLQPGKYADIVAVGGNPLLDIKATEHPLLVMKEGVIYVGGK	~22	approximately 40 U/g	90-95 °C	–
SEQ ID NO: 348: another exemplary OTA-hydrolyzing polypeptide, amidohydrolase family; mature, processed species of SEQ ID NO: 349 (protein, exemplary polypeptide) RAHIVEPVAIKAKRVFTGVTGAVIENGVVIVDDKGRIAAISRVVPKGAKVIDLGDATLLPGFIDAHVHLSGEMSDNWYKDFRDRMLRFPAEQAHYAARNAKKTLMAGFTTVRDVGSADWQASALRNAVNAGVIVGPRILASNYAIGATGGHGDGTPFPPDRVAPDGPLKGVCNGADQCRAAVRYQIKYGADVIKFMPSGGVLSLSDPVDVPELTQDEINAIISEAHAWHRKVAAHAHGDEAARMAVKAGVDSIEHGTFLTDETLKQMKKQGTYLVATLFAGEWVGMKADNYPPAVAEKARAAAAQMQRMFARAVKIGVPIAFGTDAGVEPHGLNAHEFSLMVKNGMSPKAALLAATREAAKLLGVIDRTGTLEPGKAADMVAVRGDPLADIKATEQVIFVMKGGKIYRNEVE	~19	approximately 32 U/g	85-90 °C	–
74 (protein, exemplary polypeptide) MTTRTRILTAFLSLLAANACAADAAPAAPHTVVLRAARMFDGASGKLVDHPQLTIVGNKIVRIAQGDKAEVPAGAEVVDLGDATLLPGFIDAHVHLSGQSSDNWYGDFFDNMMRFPAEQALYGAYYARITLEAGFTSVRDVGSTDWVALGLRNAIDAGKVPGPRMLVSNYLVGSTGGHADQDPIPPHKLPLAGPLQGVCNGPEECRAAVRYQIKYGANVIKFMPSGGVLSLSDPVDAPELSQDEMNAVIGESHAWGRKVAAHAHGDKAAKMAVAAGVDSIEHGSFIEDDTLRAMKAKNVYLVPTISAIAHVEEKIGTFPPVIAEKGRAAAAHLRQTFRHAVQIGVPIALGTDAGVGAHGSNAREFRYMVENGLTPAQALLAGTANAARLLGTFDRVGTLEAGKLADVVAVPGNPIADITVTERPLFVMKDGVVVRRDAVR	–	–	–	<63.2 °C
75 (protein, exemplary polypeptide) MTTRTRILTAFLSLLAANACAADAAPAAPHTVVLRAARMFDGASGKLVDHPQLTIVGNKIVRIAQGDKAEVPAGAEVVDLGDATLLPGFIDAHVHLSGQSSDNWYGDFFDNMMRFPAEQALYGAYYARITLEAGFTSVRDVGSTDWVALGLRNAIDAGKVPGPRMLVSNYAVGSTGGQADQDPIPPHKLPLAGPLQGVCNGPEECRAAVRYQIKYGANVIKFMPSGGVLSLSDPVDAPELSQDEMNAVIGESHAWGRKVAAHAHGDKAAKMAVAAGVDSIEHGSFIEDDTLRAMKAKNVYLVPTISAIAHVEEKIGTFPPVIAEKGRAAAAHLRQTFRHAVQIGVPIALGTDAGVGAHGSNAREFRYMVENGLTPAQALLAGTANAARLLGTFDRVGTLEAGKLADVVAVPGNPIADITVTERPLFVMKDGVVVRRDAVR	–	–	–	74.4-77.0 °C
79 (protein, exemplary polypeptide) MTTRTRILTAFLSLLAANACAADAAPAAPHTVVLRAARMFDGASGKLVDHPQLTIVGNKIVRIAQGDKAEVPAGAEVVDLGDATLLPGFIDAHVHLSGQSSDNWYGDFFDNMMRFPAEQALYGAYYARITLEAGFTSVRDVGSTDWVALGLRNAIDAGKVPGPRMLVSNYAVGSTGGHADQDPIPPHKLPLAGPLQGVCNGPEECRAAVRYQIKYGANVIKFMPSGGVLSLSDPVDAPELSQDEMNAVIGESHAWGRKVAAHAHGDKAAKMAVAAGVDSIEHGSFIEDDTLRAMKAKNVYLVPTISGIAHVEEKIGTFPPVIAEKGRAAAAHLRQTFRHAVQIGVPIALGTDAGTGAHGSNAREFRYMVENGLTPAQALLAGTANAARLLGTFDRVGTLEAGKLADVVAVPGNPIADITVTERPLFVMKDGVVVRRDAVR	–	–	–	70.7-72.6 °C
78 (protein, exemplary polypeptide) MTTRTRILTAFLSLLAANACAADAAPAAPHTVVLRAARMFDGASGKLVDHPQLTIVGNKIVRIAQGDKAEVPAGAEVVDLGDATLLPGFIDAHVHLSGQSSDNWYGDFFDNMMRFPAEQALYGAYYARITLEAGFTSVRDVGSTDWVALGLRNAIDAGKVPGPRMLVSNYAVGSTGGHADQDPIPPHKLPLAGPLQGVCNGPEECRAAVRYQIKYGANVIKFMPSGGVLSLSDPVDAPELSQDEMNAVIGESHAWGRKVAAHAHGDKAAKMAVAAGVDSIEHGSFIEDDTLRAMKAKNVYLVPTISGIAHTEEKIGTFPPVIAEKGRAAAAHLRQTFRHAVQIGVPIALGTDAGVGAHGSNAREFRYMVENGLTPAQALLAGTANAARLLGTFDRVGTLEAGKLADVVAVPGNPIADITVTERPLFVMKDGVVVRRDAVR	–	–	–	68.8-70.7 °C
19 (protein, polypeptide 5) MLSLLAANACVADAAPAASRTIVLRAARMFDGASGKLVEHPQLTIVGNKIVRIAQSDNAEVPASAEVIDLGDATLLPGFIDAHVHLSGQSSDNWYGDFFDNMMRFPAEQALYGAYYACITLEAGFTSVRDLGSTDWVALGLRNAIDAGKVPGPRMLVSNYAVGSTGGHADQDPIPPHRLPLAGPLQGVCNGPEECRAAVRYQIKYGANVIKFMPSGGVLSLSDPVDAPELSQDEMNAVIGESHAWGRKVAAHAHGDKAAKMAVAAGVDSIEHGSFIEDDTLRAMKAKNVYLVPTISAIAHVEEKIATFPPVIAEKGRAAAAHSRQTFRHAVQIGVPIALGTDAGVGAHGTNAREFRYMVENGLTPVQSLLAGTANAARLLGIIDRVGTLEAGKLADIVAVPGNPVADITVTERPVFVMKDGVVVRRGAVR	8.72	10.91 U/g	–	65 °C
